Experimental data from article PMC3476528.
“And” between values parts separate entries of the source, which are not always exact repeats. Equal entries are not always repeated.

B1: CHD4 tPHDtCHD/ATPase construct (minimal construct containing all three domains) (domain or fragment)
chain: YETDHQDYCEVCQQGGEIILCDTCPRAYHMVCLDPDMEKAPEGKWSCPHCEKEGIQWEAKEDNSEGEEILEEVGGDLEEEDDHHMEFCRVCKDGGELLCCDTCPSSYHIHCLNPPLPEIPNGEWLCPRCTCPALKGKVQKILIWKWGQPPSPTPVPRPPDADPNTPSPKPLEGRPERQFFVKWQGMSYWHCSWVSELQLELHCQVMFRNYQRKNDMDEPPSGDFGGDEEKSRKRKNKDPKFAEMEERFYRYGIKPEWMMIHRILNHSVDKKGHVHYLIKWRDLPYDQASWESEDVEIQDYDLFKQSYWNHRELMRGEEGRPGKKLKKVKLRKLERPPETPTVDPTVKYERQPEYLDATGGTLHPYQMEGLNWLRFSWAQGTDTILADEMGLGKTVQTAVFLYSLYKEGHSKGPFLVSAPLSTIINWEREFEMWAPDMYVVTYVGDKDSRAIIRENEFSFEDNAIRGGKKASRMKKEASVKFHVLLTSYELITIDMAILGSIDWACLIVDEAHRLKNNQSKFFRVLNGYSLQHKLLLTGTPLQNNLEELFHLLNFLTPERFHNLEGFLEEFADIAKEDQIKKLHDMLGPHMLRRLKADVFKNMPSKTELIVRVELSPMQKKYYKYILTRNFEALNARGGGNQVSLLNVVMDLKKCCNHPYLFPVAAMEAPKMPNGMYDGSALIRASGKLLLLQKMLKNLKEGGHRVLIFSQMTKMLDLLEDFLEHEGYKYERIDGGITGNMRQEAIDRFNAPGAQQFCFLLSTRAGGLGINLATADTVIIYDSDWNPHNDIQAFSRAHRIGQNKKVMIYRFVTRASVEERITQVAKKKMMLTHLVVRPGL
modifications: not checked
B2: CHD4 tandem plant homeodomain zinc fingers (tPHD) construct (domain or fragment)
chain: YETDHQDYCEVCQQGGEIILCDTCPRAYHMVCLDPDMEKAPEGKWSCPHCEKEGIQWEAKEDNSEGEEILEEVGGDLEEEDDHHMEFCRVCKDGGELLCCDTCPSSYHIHCLNPPLPEIPNGEWLCPRCTCPALKGK
modifications: not checked
B3: CHD4 tPHDtCHD construct (tandem PHD and tandem chromodomains) (domain or fragment)
chain: YETDHQDYCEVCQQGGEIILCDTCPRAYHMVCLDPDMEKAPEGKWSCPHCEKEGIQWEAKEDNSEGEEILEEVGGDLEEEDDHHMEFCRVCKDGGELLCCDTCPSSYHIHCLNPPLPEIPNGEWLCPRCTCPALKGKVQKILIWKWGQPPSPTPVPRPPDADPNTPSPKPLEGRPERQFFVKWQGMSYWHCSWVSELQLELHCQVMFRNYQRKNDMDEPPSGDFGGDEEKSRKRKNKDPKFAEMEERFYRYGIKPEWMMIHRILNHSVDKKGHVHYLIKWRDLPYDQASWESEDVEIQDYDLFKQSYWNHRELMRGEEGRPGKKLKKVKLRKL
modifications: not checked

Experiments:
[1] = biological target: T1, histone H3 peptide 1-21 dimethylated on K9, biotinylated, P68431; assay: SPR; as a1 but tPHDtCHD/ATPase injected with added ATP
[2] = biological target: T2, histone H3 peptide 1-21 monomethylated on K9, biotinylated, P68431; assay: as above
[3] = biological target: T3, histone H3 peptide 1-21 trimethylated on K9, biotinylated, P68431; assay: as above
[4] = biological target: histone H3 peptide 1-21, unmodified, biotinylated, P68431; assay: as above
[5] = biological target: T4, nucleosome core particle reconstituted from recombinant X. laevis histones and a 168 bp fragment of 601-DNA (X. laevis)
[6] = biological target: T1, histone H3 peptide 1-21 dimethylated on …; assay: SPR; biotinylated histone H3 peptides immobilised on streptavidin sensor, CHD4 constructs injected at 100 μl/min; 25 °C; 20 mM Tris pH 7.5, 200 mM NaCl, 0.05% polysorbate 20; Kd from the steady-state response, sensorgrams when appropriate globally fitted; three repeats
[7] = biological target: T2, histone H3 peptide 1-21 monomethylated …; assay: as above
[8] = biological target: T3, histone H3 peptide 1-21 trimethylated …; assay: as above
[9] = biological target: histone H3 peptide 1-21, unmodified, biotinylated, P68431; assay: as above
[10] = biological target: T4, nucleosome core particle reconstituted …; assay: native gel or EMSA; 50 fmol radiolabeled mononucleosomes with increasing amounts of CHD4 constructs, 15 min on ice, 20 Tris-HCl pH 8, 200 mM NaCl, 10% sucrose; 5% native polyacrylamide gel, autoradiography

Binder	Kd [6]	koff [6] [s⁻¹]	kon [6] [M⁻¹ s⁻¹]	Kd [7] [µM]	Kd [8]	koff [8] [s⁻¹]	kon [8] [M⁻¹ s⁻¹]	Kd [9]	koff [9] [s⁻¹]	kon [9] [M⁻¹ s⁻¹]	concentration necessary for binding [10] [µM]	also measured
B1	4.7 µM	0.0056	1200	2.9	2.6 µM	0.025	1000	4.1 µM	0.0135	3300	0.06	Kd [1]: 1.7 µM; koff [1]: 0.0073 s⁻¹; kon [1]: 4300 M⁻¹ s⁻¹; Kd [2]: 6.9 µM; Kd [3]: 0.5 µM; koff [3]: 0.018 s⁻¹; kon [3]: 36000 M⁻¹ s⁻¹; Kd [4]: 1.4 µM; koff [4]: 0.0265 s⁻¹; kon [4]: 18900 M⁻¹ s⁻¹; ATPase activity (kcat, phosphate release assay) with 0.32 pmol of mono-nucleosome particles; about 6-fold stimulation [5]: 0.0615 s⁻¹; koff [7]: 0.026 s⁻¹; kon [7]: 900 M⁻¹ s⁻¹
B2	63 µM and 51 µM	0.2	3900	42	70 µM and 48 µM	0.17	3500	190 µM and 188 µM	0.49	2600	10 to 20	–
B3	8.6 µM	0.31	–	24	21 µM and 10 µM	–	33000	14 µM and 19 µM	0.68	50000	0.5	–
